Source: patent US20240368309A1 (Hoffmann-La Roche, published 2024)

Target: T1, biotinylated monovalent EpCAM-Fc (human EpCAM ECD-Fc knob avi-his paired with Fc hole) (human, UniProt P01857 104-328 = IgG part, biotin on the avi tag (BirA co-expression))
T1 construct: also called monovalent EpCAM-Fc construct; huEPCAM-Fc-knob (avi-His) + Fc hole (wt)
Test: SPR ProteOn XPR36 off-rate, biotinylated monovalent EpCAM-Fc on NLC chip, 50 nM supernatant

| Binder | koff [s⁻¹] |
| --- | --- |
| Monovalent EpCAM (GG04_VH x GG04_VL) (antibody, IgG1, V domains shown, one-armed hu IgG1 PG-LALA, VH/VL-crossed Fab on Fc hole plus empty Fc knob; from supernatant) VH: EVQLVQSGAEVKKPGESLKISCKGSGYSFTNYGMNWVRQMPGKGLEWMGWINTYTGESTYSPSFQGQVTISADKSISTAYLQWSSLKASDTAMYFCARFAIKGDYWGQGTLVTVSS VL: DIQMTQSPSSLSASVGDRVTITCRASQSISSYLYWYQQKPGKAPKLLIYQASSLQSGVPSRFSGSGSGTDFTLTISSLQPEDFATYYCAQNLEIPRTFGQGTKLEIK | 0.0069 |
| Monovalent EpCAM (GG04_VH x GG05_VL) (antibody, IgG1, V domains shown, one-armed hu IgG1 PG-LALA, VH/VL-crossed Fab on Fc hole plus empty Fc knob; from supernatant) VH: EVQLVQSGAEVKKPGESLKISCKGSGYSFTNYGMNWVRQMPGKGLEWMGWINTYTGESTYSPSFQGQVTISADKSISTAYLQWSSLKASDTAMYFCARFAIKGDYWGQGTLVTVSS VL: DIVMTQSPLSLPVTPGEPASISCRSSQGINNYLYWYLQKPGQSPQLLIYQMSNRASGVPDRFSGSGSGTDFTLKISRVEAEDVGVYYCAQNLEIPRTFGQGTKLEIK | 0.0123 |
| Monovalent EpCAM (GG04_VH x GG03_VL) (antibody, IgG1, V domains shown, one-armed hu IgG1 PG-LALA, VH/VL-crossed Fab on Fc hole plus empty Fc knob; from supernatant) VH: EVQLVQSGAEVKKPGESLKISCKGSGYSFTNYGMNWVRQMPGKGLEWMGWINTYTGESTYSPSFQGQVTISADKSISTAYLQWSSLKASDTAMYFCARFAIKGDYWGQGTLVTVSS VL: EIVLTQSPGTLSLSPGERATLSCRASQSLLHSNGITYLYWYQQKPGQAPRLLIYQMSNRATGIPDRFSGSGSGTDFTLTISRLEPEDFAVYYCAQNLEIPRTFGQGTKLEIK | 0.00538 |
| Monovalent EpCAM (GG01_VH x GG06_VL) (antibody, IgG1, V domains shown, one-armed hu IgG1 PG-LALA, VH/VL-crossed Fab on Fc hole plus empty Fc knob; from supernatant) VH: QVQLVQSGSELKKPGASVKVSCKASGYTFTNYGMNWVRQAPGQGLEWMGWINTYTGESTYAQGFTGRFVFSLDTSVSTAYLQISSLKAEDTAVYFCARFAIKGDYWGQGTLVTVSS VL: DIQMTQSPSSLSASVGDRVTITCRASQSILHSQGITYLYWYQQKPGKAPKLLIYQMSNLQSGVPSRFSGSGSGTDFTLTISSLQPEDFATYYCAQNLEIPRTFGQGTKLEIK | 0.00412 |

Results, then the binder that gave them:

| koff [s⁻¹] | Binder |
| --- | --- |
| 0.0127 | Monovalent EpCAM (GG05_VH x GG05_VL) (antibody, IgG1, V domains shown, one-armed hu IgG1 PG-LALA, VH/VL-crossed Fab on Fc hole plus empty Fc knob; from supernatant) VH: EVQLVQSGAEVKKPGESLKISCKGSGYSFTQYGMNWVRQMPGKGLEWMGWINTYTGESTYSPSFQGQVTISADKSISTAYLQWSSLKASDTAMYFCARFAIKGDYWGQGTLVTVSS VL: DIVMTQSPLSLPVTPGEPASISCRSSQGINNYLYWYLQKPGQSPQLLIYQMSNRASGVPDRFSGSGSGTDFTLKISRVEAEDVGVYYCAQNLEIPRTFGQGTKLEIK |
| 0.00536 | Monovalent EpCAM (GG05_VH x GG04_VL) (antibody, IgG1, V domains shown, one-armed hu IgG1 PG-LALA, VH/VL-crossed Fab on Fc hole plus empty Fc knob; from supernatant) VH: EVQLVQSGAEVKKPGESLKISCKGSGYSFTQYGMNWVRQMPGKGLEWMGWINTYTGESTYSPSFQGQVTISADKSISTAYLQWSSLKASDTAMYFCARFAIKGDYWGQGTLVTVSS VL: DIQMTQSPSSLSASVGDRVTITCRASQSISSYLYWYQQKPGKAPKLLIYQASSLQSGVPSRFSGSGSGTDFTLTISSLQPEDFATYYCAQNLEIPRTFGQGTKLEIK |
| 4.35e-05 | Monovalent EpCAM (GG05_VH x GG03_VL) (antibody, IgG1, V domains shown, one-armed hu IgG1 PG-LALA, VH/VL-crossed Fab on Fc hole plus empty Fc knob; from supernatant) VH: EVQLVQSGAEVKKPGESLKISCKGSGYSFTQYGMNWVRQMPGKGLEWMGWINTYTGESTYSPSFQGQVTISADKSISTAYLQWSSLKASDTAMYFCARFAIKGDYWGQGTLVTVSS VL: EIVLTQSPGTLSLSPGERATLSCRASQSLLHSNGITYLYWYQQKPGQAPRLLIYQMSNRATGIPDRFSGSGSGTDFTLTISRLEPEDFAVYYCAQNLEIPRTFGQGTKLEIK |
| 0.00545 | Monovalent EpCAM (GG05_VH x GG01_VL) (antibody, IgG1, V domains shown, one-armed hu IgG1 PG-LALA, VH/VL-crossed Fab on Fc hole plus empty Fc knob; from supernatant) VH: EVQLVQSGAEVKKPGESLKISCKGSGYSFTQYGMNWVRQMPGKGLEWMGWINTYTGESTYSPSFQGQVTISADKSISTAYLQWSSLKASDTAMYFCARFAIKGDYWGQGTLVTVSS VL: DIVMTQSPLSLPVTPGEPASISCRSSQSLLHSNGITYLYWYLQKPGQSPQLLIYQMSNRASGVPDRFSGSGSGTDFTLKISRVEAEDVGVYYCAQNLEIPRTFGQGTKLEIK |
| 0.00581 | Monovalent EpCAM (GG04_VH x GG06_VL) (antibody, IgG1, V domains shown, one-armed hu IgG1 PG-LALA, VH/VL-crossed Fab on Fc hole plus empty Fc knob; from supernatant) VH: EVQLVQSGAEVKKPGESLKISCKGSGYSFTNYGMNWVRQMPGKGLEWMGWINTYTGESTYSPSFQGQVTISADKSISTAYLQWSSLKASDTAMYFCARFAIKGDYWGQGTLVTVSS VL: DIQMTQSPSSLSASVGDRVTITCRASQSILHSQGITYLYWYQQKPGKAPKLLIYQMSNLQSGVPSRFSGSGSGTDFTLTISSLQPEDFATYYCAQNLEIPRTFGQGTKLEIK |
| 0.00303 | Monovalent EpCAM (GG06_VH x GG06_VL) (antibody, IgG1, V domains shown, one-armed hu IgG1 PG-LALA, VH/VL-crossed Fab on Fc hole plus empty Fc knob; from supernatant) VH: QVQLVQSGSELKKPGASVKVSCKASGYTFTNYGMNWVRQAPGQGLEWMGWINTYTGQSTYAQGFTGRFVFSLDTSVSTAYLQISSLKAEDTAVYFCARFAIKGDYWGQGTLVTVSS VL: DIQMTQSPSSLSASVGDRVTITCRASQSILHSQGITYLYWYQQKPGKAPKLLIYQMSNLQSGVPSRFSGSGSGTDFTLTISSLQPEDFATYYCAQNLEIPRTFGQGTKLEIK |
| 0.00142 | Monovalent EpCAM (GG07_VH x GG06_VL) (antibody, IgG1, V domains shown, one-armed hu IgG1 PG-LALA, VH/VL-crossed Fab on Fc hole plus empty Fc knob; from supernatant) VH: QVQLVQSGSELKKPGASVKVSCKASGYTFTNYGMNWVRQAPGQGLEWMGWINTYTGESTYAQGFTGRFVFSLDTSVSTAYLQISSLKAEDTAVYFCARFARSGDYWGQGTLVTVSS VL: DIQMTQSPSSLSASVGDRVTITCRASQSILHSQGITYLYWYQQKPGKAPKLLIYQMSNLQSGVPSRFSGSGSGTDFTLTISSLQPEDFATYYCAQNLEIPRTFGQGTKLEIK |
